These results are taken from US20110256132A1 (published 2011).

Numbering of substitutions follows the chain as printed. Where two headings read alike, the source gives them in different places.

In assay [1] the target is T1, mature myostatin (recombinant, dimeric) (mouse polyprotein used for in-house …, UniProt O08689 268-376).
T1 construct: also called GDF-8; recombinant myostatin
T1 sequence: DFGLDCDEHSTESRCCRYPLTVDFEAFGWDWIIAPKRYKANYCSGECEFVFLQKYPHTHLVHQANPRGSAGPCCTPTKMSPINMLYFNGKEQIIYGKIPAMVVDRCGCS
Description: myostatin binding ELISA with purified antibody, 10 ng/well recombinant myostatin coated, anti-human kappa HRP, A490 (Examples 4.1, 4.2). The procedure: (§1) The myostatin binding ELISA was carried out approximately according to this protocol. A 96-well ELISA plate was coated at 4° C. overnight with 10 ng/well recombinant myostatin. This plate was then washed 3-times in wash buffer (PBS, 0.1% Tween-20). The wells were blocked for 1 hour at room temperature with block solution (PBS, 0.1% Tween-20+1% bovine serum albumin [BSA]), before washing 3-times in wash buffer. Antibodies were then titrated out to a suitable concentration range (approximately 100 to 0.001 μg/ml), added to the plate and incubated for 1 hour at room temperature. The plate was then washed 3-times in wash buffer. An anti-mouse IgG HRP-conjugated antibody (P0260 by Dako, this reagent was used according to the manufacturer's instructions) was used to detect binding of mouse antibodies, such as 10B3. An anti-human kappa light chain HRP-conjugated antibody (A7164 by Sigma Aldridge, this reagent was used according to the manufacturer's instructions) was used to detect binding of humanized or chimeric antibodies, such as 10B3 chimera or H0L0. The plate was then washed 3-times in wash buffer and developed with an OPD substrate (from Sigma, used according to the manufacturer's instructions) and read at 490 nm on a plate reader.

The target of assay [2] is T1, mature myostatin (recombinant, dimeric). In words: BIAcore, low density myostatin surface, antibody analyte, 1:1 model. The protocol:
(§2) Purified H0L0, H1L2 and H2L2 bound recombinant myostatin by BIAcore™ Recombinant myostatin was immobilised at three different densities (low, medium and high, to give R-max values of approximately 35, 120 and 350 RU's respectively) onto a BIAcore™ chip. Antibodies were passed over at 256, 64, 16, 4 and 1 nM. 0 nM antibody was used for double referencing and data was fitted to the 1:1 model.

Assay [3] shares this target. Description: BIAcore, medium density myostatin surface, antibody analyte, 1:1 model (poor fits). The protocol:
as §2
A general note: SPR reads the build-up and loss of mass on a sensor chip optically.

Assay [4] shares this target. Description: myostatin binding ELISA with purified antibody, 10 ng/well recombinant myostatin coated, anti-human kappa HRP, A490 (Examples 4.1, 4.2); the text says the CHOK1 material was hard to quantify. The procedure: as §1
In general terms: An ELISA detects its analyte on a solid surface through an enzyme-linked reagent.

For assay [5] the target is unchanged. Description: BIAcore, low density myostatin surface, methods as in 4.3.
Assay [6] shares this target. Description: cell-based or functional assay.
Assay [7] shares this target. Description: BIAcore, high density myostatin surface, antibody analyte, 1:1 model (poor fits). The procedure: as §2
The target is the same in assay [8]. Description: cell-based or functional assay. The source holds these as a separate data set.
Assay [9] has the same target. In words: cell-based or functional assay. The source holds these as a separate data set.
For assay [10] the target is unchanged. In words: cell-based or functional assay. This is another data set of the same source.
For assay [11] the target is unchanged. In words: ActRIIb receptor binding assay (Example 2.5), mean IC50. The protocol:
Recombinant soluble ActRIIb (R&D Systems 339-RBB) was coated in wells of an ELISA plate at 1 μg/ml in carbonate buffer overnight at 4° C. Plates were blocked (see Block solution above at 2.3) and washed following standard ELISA protocols. In parallel, 2 nM biotinylated myostatin (in-house, as described in 1.1, biotinylated material) was pre-incubated with an antibody dilution series consisting of 10B3, 10B3C, and a negative control (IgG1 isotype control) for 2 hours at 37° C. The biotinylated myostatin:antibody reactions were then added to the ActRIIb coated plate for 1 hour at 37° C. Standard wash procedures were followed prior to addition of 1:1000 diluted streptavidin-HRP conjugate (Dako P0397) and a further 37° C. incubation for 1 hour. Plates were again washed and assayed at absorbance 490 nm following OPD substrate (Sigma) and acid stop solution treatment Inhibition curves and IC50 values for the inhibition of myostatin activity are shown in FIG. 5 and Table 8 respectively.
H2L2 C91S_G55S F100G_Y, the developability enhanced molecule with the highest apparent potency in the A204 assay was Fc-disabled (by making the following substitutions, using EU numbering system: Leu 235 Ala; and Gly 237 Ala) as exemplified in SEQ ID NO: 99.

Assay [12] shares this target. In words: myostatin binding ELISA, 10 ng/well recombinant myostatin coated, CHOK1 supernatants, anti-human kappa HRP, OPD, A490 (Examples 4.1, 4.2). The protocol: as §1
For assay [13] the target is unchanged. Description: competition ELISA, biotinylated myostatin on streptavidin, competitor 10B3. The procedure:
(§3) A 96-well ELISA plate was coated at 4° C. overnight with 2.5 μg/ml polyclonal Antibody to Myostatin (R&D Systems AF788). This plate was then washed 3-times in wash buffer (PBS, 0.1% Tween-20) and blocked for 1 hour at room temperature with block solution (PBS, 0.1% Tween-20+1% bovine serum albumin [BSA]). Then, myostatin was added at 1 μg/ml in block buffer during 1 hour followed by 3-times in wash buffer. Antibodies were then titrated out to a suitable concentration range (approximately 10 to 0.01 μg/ml), added to the plate and incubated for 1 hour at room temperature. The plate was then washed 3-times in wash buffer. An anti-human kappa light chain HRP-conjugated antibody (Sigma A7164, used according to the manufacturer's instructions) was used to detect binding of humanized or chimeric antibodies, such as 10B3 chimera (HcLc) or H0L0. The plate was then washed 3-times in wash buffer and developed with an OPD substrate (according to the manufacturer's instructions) and read at 490 nm on a plate reader.
The protocol set out in 6.7 was used but the plates were initially coated at 4° C. overnight with 5 μg/ml of streptavidin. Biotinylated myostatin was added at 0.3 μg/ml block buffer during 1 hour followed by 3-times in wash buffer. 10B3 (final concentration of 0.2 μg/ml) was added into each well and mixed with antibodies titrated out to a suitable concentration range (approximately 10 to 0.01 μg/ml). An anti-mouse HRP-conjugated antibody (DAKO P0260, used according to the manufacturer's instructions) was used to detect binding of the 10B3 antibody.

Assay [14] shares this target. Description: competition ELISA, directly coated myostatin, competitor 10B3. The protocol: as §3
The protocol set out in 6.7 was used but the plates were initially coated at 4° C. overnight with 0.2 μg/ml of myostatin (recombinant in-house, see 1.1 above). 10B3 (final concentration of 0.3 μg/ml) was added into each well and mixed with antibodies titrated out to a suitable concentration range (approximately 10 to 0.01 μg/ml). An anti-mouse HRP-conjugated antibody (DAKO P0260, used according to the manufacturer's instructions) was used to detect binding of the 10B3 antibody.

Assay [15] has the same target. In words: cell-based or functional assay. This is another data set of the same source.
For assay [16] the target is unchanged. Description: competition ELISA, myostatin captured by polyclonal antibody, competitor 10B3. The procedure: as §3
The protocol set out in 6.7 was used with the addition of 10B3 (final concentration of […]) to each well and mixed with the antibodies titrated out to a suitable concentration range (approximately 10 to 0.01 μg/ml). An anti-mouse HRP-conjugated antibody (DAKO P0260, used according to the manufacturer's instructions) was used to detect binding of the 10B3 antibody.

Assay [17] shares this target. Description: myostatin capture ELISA: plate coated with polyclonal anti-myostatin AF788, myostatin 1 µg/ml captured, purified antibody titrated, anti-human kappa HRP, A490 (Example 6.7). The protocol: as §3
The experiment is illustrated in FIG. 21 where H2L2-C91S, H0L0, HcLc (10B3 chimera) and a negative control monoclonal antibody were used as control antibodies. All eleven CDRH3 variant antibodies bound to recombinant myostatin in this ELISA. […]

B1: H0L0 (antibody, human IgG1, kappa)
heavy: not shown
light: DIQMTQSPSSLSASVGDRVTITCKASQDINSYLSWFQQKPGKAPKSLIYRANRLVDGVPSKFSGSGSGTDFTLTISSLQPEDFATYYCLQCDEFPLTFGQGTKLEIKRTVAAPSVFIFPPSDEQLKSGTASVVCLLNNFYPREAKVQWKVDNALQSGNSQESVTEQDSKDSTYSLSSTLTLSKADYEKHKVYACEVTHQGLSSPVTKSFNRGEC
notes: Humanised, human IgG1 wild type/kappa
For orientation: EC50 (read off the curve) means the concentration that produces a half-maximal response. What is called Kd is the equilibrium constant for the complex coming apart. The term koff denotes a measure of how fast the partners let go of each other. Broadly, the kon is the second-order rate constant of association. B1: the results for the concentration for a half-maximal effect (EC50 (read off the curve)) in [1] and in [4] were roughly 0.1 µg/mL and roughly 0.3 µg/mL, respectively. The Kd turned out to be 8.26 nM in assay [2], 3.61 nM in [3], 22.7 nM in assay [5] and 2.31 nM in [7]. The figures for the koff in [2], in assay [3] and in assay [7] were 0.00662 s⁻¹, 0.00093 s⁻¹ and 0.000338 s⁻¹, respectively. Further, the values for the kon in assay [2], in [3] and in assay [7] were 801000 M⁻¹ s⁻¹, 258000 M⁻¹ s⁻¹ and 146000 M⁻¹ s⁻¹, respectively. The “Mean IC50, A204 in vitro activity assay” value worked out at 10.2 nM in [6] and 10.1 nM in [8].

B2: H2L2-C91S_F100G_Y Fc Disabled (antibody, human IgG1, kappa)
heavy: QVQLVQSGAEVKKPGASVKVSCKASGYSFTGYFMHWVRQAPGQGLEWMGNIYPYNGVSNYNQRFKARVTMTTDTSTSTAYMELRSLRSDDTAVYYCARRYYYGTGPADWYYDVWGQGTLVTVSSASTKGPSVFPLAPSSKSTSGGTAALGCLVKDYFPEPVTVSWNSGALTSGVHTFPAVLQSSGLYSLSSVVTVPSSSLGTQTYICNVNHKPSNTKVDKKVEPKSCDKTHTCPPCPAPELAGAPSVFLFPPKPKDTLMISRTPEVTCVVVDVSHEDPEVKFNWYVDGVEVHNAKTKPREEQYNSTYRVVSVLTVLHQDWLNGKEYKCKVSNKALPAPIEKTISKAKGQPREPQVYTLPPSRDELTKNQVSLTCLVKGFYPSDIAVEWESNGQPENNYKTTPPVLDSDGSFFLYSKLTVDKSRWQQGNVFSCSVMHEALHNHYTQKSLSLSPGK
light: B1 light with F71Y, C91S
As to B2, in assay [9], the “Mean IC50, A204 in vitro activity assay” value was determined as 1.24 nM.

B3: H2L2 C91S_G55S F100G_Y (antibody)
chain 1: not shown
chain 2: B1 light with F71Y, C91S
Broadly, the IC50 is the concentration that inhibits the measured activity by half. Take B3: the “Mean IC50, A204 in vitro activity assay” value in [10] was determined as 4.42 nM. The IC50 in assay [11] was determined as 0.786 nM.

B4: H2L1 (antibody, human IgG1, kappa)
heavy: not shown
light: B1 light with G16R
notes: as for B1
On to B4, for which the binding result in assay [12] is “binds”.

B5: H2L0 (antibody, human IgG1, kappa)
heavy: not shown
light: B1 light
notes: as for B1
With B5, in assay [12], the binding result is reported as “binds”.

B6: H2L2 C91S_G55S F100G_Y-Fc disabled (antibody, human IgG1, kappa)
heavy: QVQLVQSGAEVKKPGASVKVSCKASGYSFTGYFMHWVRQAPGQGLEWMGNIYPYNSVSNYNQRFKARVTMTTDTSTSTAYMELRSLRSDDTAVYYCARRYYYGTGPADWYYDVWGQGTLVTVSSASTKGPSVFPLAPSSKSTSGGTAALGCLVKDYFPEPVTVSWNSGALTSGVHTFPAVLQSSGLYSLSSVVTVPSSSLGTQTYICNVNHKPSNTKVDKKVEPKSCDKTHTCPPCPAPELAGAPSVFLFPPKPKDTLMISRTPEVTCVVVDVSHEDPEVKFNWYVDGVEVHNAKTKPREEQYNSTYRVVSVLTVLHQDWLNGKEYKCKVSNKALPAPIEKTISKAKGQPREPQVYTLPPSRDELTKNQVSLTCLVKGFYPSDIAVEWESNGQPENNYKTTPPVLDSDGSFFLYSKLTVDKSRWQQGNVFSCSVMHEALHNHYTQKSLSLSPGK
light: B1 light with F71Y, C91S
Turning to B6, in assay [11], the half-inhibitory concentration (IC50) worked out at 0.518 nM.

B7: H2L2-C91S_F100G_Y (antibody, human IgG1, kappa)
heavy: not shown
light: B1 light with F71Y, C91S
notes: Fc not disabled
As to B7, the entries for the “ranking order top (1) to bottom (5), myostatin competition ELISA” value in [13], in assay [14] and in assay [16] were 2, 2 and 4, respectively. Moreover, the “Mean IC50, A204 in vitro activity assay” value in assay [10] amounted to 11.1 nM. Moreover, the “Mean IC50, A204 in vitro activity assay (5 nM myostatin)” value in [15] was 3.64 nM.

B8: H2L3 (antibody, human IgG1, kappa)
heavy: not shown
light: B1 light with Q100A
notes: as for B1
With B8, in assay [12], the binding result was “binds”.

B9: H2L2-C91S_F100G_N (antibody, human IgG1, kappa, V domains shown)
VH: QVQLVQSGAEVKKPGASVKVSCKASGYSFTGYFMHWVRQAPGQGLEWMGNIYPYNGVSNYNQRFKARVTMTTDTSTSTAYMELRSLRSDDTAVYYCARRYYYGTGPADWYNDVWGQGTLVTVSS
VL: DIQMTQSPSSLSASVGDRVTITCKASQDINSYLSWFQQKPGKAPKSLIYRANRLVDGVPSKFSGSGSGTDYTLTISSLQPEDFATYYCLQSDEFPLTFGQGTKLEIKR
Consider B9, for which the binding result in assay [17] was “binds”.

B10: H2L2-C91S_W100E_F (antibody, human IgG1, kappa, V domains shown)
VH: B9 VH with W109F, N111F
VL: B9 VL
B10: the binding result in assay [17] is “binds”.
